Reference: patent EP4613859A1, “TLR SIGNALING INHIBITORY PEPTIDE AND COMPOSITION INCLUDING SAME FOR PREVENTION OR TREATMENT OF INFLAMMATORY DISEASES” (Korea Institute of Science and Technology, priority 2022, dated 2025)

Legend:
human MyD88 (human) [1] = target: human MyD88 (human) (UniProt Q99836); test: P3 phage display panning on plate-immobilised MyD88, after round 4, NGS
human MyD88 (human) [2] = target: human MyD88 (human) (UniProt Q99836); test: P8 phage display panning on plate-immobilised MyD88, after round 4, NGS
human MAL (human) [3] = target: human MAL (human) (UniProt P58753); test: P8 phage display panning on plate-immobilised MAL, after round 4, NGS
Chain of UniProt P58753 (P58753 79-221 limits assumed): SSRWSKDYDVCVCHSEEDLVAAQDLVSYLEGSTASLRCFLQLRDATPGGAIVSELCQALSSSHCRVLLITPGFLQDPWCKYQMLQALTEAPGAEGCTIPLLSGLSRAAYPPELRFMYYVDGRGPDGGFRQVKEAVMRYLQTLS

human MAL (human) [4] = target: human MAL (human) (UniProt P58753); test: P3 phage display panning on plate-immobilised MAL, after round 4, NGS

Chain of UniProt Q99836 (Q99836 155-296 limits assumed): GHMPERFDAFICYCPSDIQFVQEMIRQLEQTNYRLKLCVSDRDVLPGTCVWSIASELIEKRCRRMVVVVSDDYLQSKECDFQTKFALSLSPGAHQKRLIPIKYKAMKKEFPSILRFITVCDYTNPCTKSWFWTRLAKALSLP

Row | NGS count (human MyD88 (human) [1]) | Population (human MyD88 (human) [1]) | NGS count (human MAL (human) [3]) | Population (human MAL (human) [3]) | Binder | also measured
1 | 2080 count | 0.6% | – | – | TSHLHHALRLNKIETF | –
2 | 4230 count | 1.23% | – | – | NGHESEIIKEIVDTIV | –
3 | 2580 count | 0.75% | – | – | GFLYQAFAREGFKIFM | NGS count (human MAL (human) [4]): 1760 count; Population (human MAL (human) [4]): 0.66%
4 | – | – | 520 count | 0.19% | FTLAVHVRNWLVGGFI | –
5 | 5490 count | 1.89% | – | – | SENYATSPWALDELVL | –
6 | 8310 count | 2.42% | – | – | LKWGDPYFWSKLRYAM | NGS count (human MAL (human) [4]): 5130 count; Population (human MAL (human) [4]): 1.93%
7 | 17500 count | 5.08% | – | – | LVAHEISKKMKIFATI | NGS count (human MAL (human) [4]): 1670 count; Population (human MAL (human) [4]): 0.63%
8 | – | – | 79000 count | 24.4% | WFYERLVSLILRDTKV | –
9 | 2500 count | 0.73% | – | – | PEKDNGGENAFINNIV | –
10 | 79500 count | 23.1% | – | – | SSFREGLWRLLELSKK | NGS count (human MAL (human) [4]): 30000 count; Population (human MAL (human) [4]): 11.3%
11 | 1980 count | 0.58% | – | – | ESILNQLRRSSQSIAN | NGS count (human MAL (human) [4]): 3680 count; Population (human MAL (human) [4]): 1.38%
12 | 4870 count | 1.42% | – | – | SELRVVDDGSVSPLEM | –
13 | – | – | 2580 count | 0.8% | SLLYDHLRWLGIRAFL | –
14 | – | – | 867 count | 0.27% | DFLNWFIALKSTVIEN | –
15 | 3290 count | 0.96% | – | – | FLSYRALEKRFGPIGQ | –
16 | – | – | 2070 count | 0.64% | KLIQGWFLYRLLKIEQ | –
17 | – | – | 2270 count | 0.7% | WFMMKFRTVLDHVNDV | –
18 | – | – | 353 count | 0.11% | WFLTAFRMAMDQVADT | –
19 | 26700 count | 7.78% | – | – | DHHLDLPRGKAIKPEILG | NGS count (human MAL (human) [4]): 2280 count; Population (human MAL (human) [4]): 0.86%
20 | – | – | 4890 count | 1.51% | KLFWEKFKEFFLPSLSR | –

Further lines, the binder ahead of its results:

Row | Binder | NGS count (human MyD88 (human) [1]) | Population (human MyD88 (human) [1]) | NGS count (human MAL (human) [3]) | Population (human MAL (human) [3]) | also measured
21 | AVDKETDKIQTPLKNA | 4790 count | 1.39% | – | – | –
22 | HWIDWEYFVGIEDHIK | – | – | – | – | NGS count (human MyD88 (human) [2]): 3420 count; Population (human MyD88 (human) [2]): 1.32%
23 | DYASSTWWLRELLQIA | – | – | – | – | NGS count (human MyD88 (human) [2]): 4110 count; Population (human MyD88 (human) [2]): 1.58%
24 | HFFWIQLKSILGETSF | – | – | 3620 count | 1.12% | –
25 | AFLYTFLINLTHPTNF | – | – | 51100 count | 18.9% | –
26 | YTALTNSGFHTFRDND | 17600 count | 5.12% | – | – | –
27 | PSEVRKQTGSLAKAFA | 2250 count | 0.66% | – | – | –
28 | YNFISHLYDALHRNRI | 2890 count | 0.84% | – | – | NGS count (human MAL (human) [4]): 2680 count; Population (human MAL (human) [4]): 1.01%
29 | VANILGYHWIDWEYFV | – | – | – | – | NGS count (human MyD88 (human) [2]): 2030 count; Population (human MyD88 (human) [2]): 0.78%
30 | YYLDPSHLRKQSGEFG | 2540 count | 0.74% | – | – | –
31 | LKVESWRQALEKAGKL | 16800 count | 4.91% | – | – | NGS count (human MAL (human) [4]): 5180 count; Population (human MAL (human) [4]): 2.32%
32 | LFFWESLKQLLRSDGR | – | – | 22600 count | 5.97% | –
33 | TFLGHLYNALVQAGIH | – | – | 24700 count | 7.64% | –
34 | WFLFTVRSAIYAMSPA | – | – | 3160 count | 0.97% | –
35 | MFGGDTFHDFLDLISM | – | – | – | – | NGS count (human MyD88 (human) [2]): 1490 count; Population (human MyD88 (human) [2]): 0.57%
36 | HLLKEFDKKLITAFKD | 2400 count | 0.7% | – | – | –
37 | YFLHFLLFSRPETEYI | – | – | 17200 count | 5.31% | –
38 | YAFTGHLHRYLVQRGV | 13400 count | 3.91% | – | – | NGS count (human MAL (human) [4]): 43800 count; Population (human MAL (human) [4]): 16.4%

Row | Binder | NGS count (human MyD88 (human) [1]) | Population (human MyD88 (human) [1]) | NGS count (human MAL (human) [3]) | Population (human MAL (human) [3]) | also measured
39 | NELVHVWSSKANSLVG | 8820 count | 2.57% | – | – | NGS count (human MAL (human) [4]): 1840 count; Population (human MAL (human) [4]): 0.69%
40 | YLISYIFNELARAGFS | – | – | 295 count | 0.09% | –
41 | YASSSWALDELLRILY | – | – | – | – | NGS count (human MyD88 (human) [2]): 2330 count; Population (human MyD88 (human) [2]): 0.9%
42 | RKGDLISDELLIAIEE | 2450 count | 0.71% | – | – | –
43 | YAASPWWFDELVKIVG | – | – | – | – | NGS count (human MyD88 (human) [2]): 3430 count; Population (human MyD88 (human) [2]): 1.32%
44 | SEFIQKIILWMNPKIV | – | – | 4460 count | 1.38% | –
45 | KEVEGWRDALTKVASL | 5190 count | 1.8% | – | – | NGS count (human MAL (human) [4]): 3760 count; Population (human MAL (human) [4]): 1.41%
46 | AFFWEQLRTVLGKPTM | – | – | 11800 count | 3.65% | –
47 | KNLFNELVSKNIRTFM | 8540 count | 2.49% | – | – | NGS count (human MAL (human) [4]): 3260 count; Population (human MAL (human) [4]): 1.22%
48 | GLSWGPYEWWMGLYDA | – | – | – | – | NGS count (human MyD88 (human) [2]): 1960 count; Population (human MyD88 (human) [2]): 0.76%
49 | IDDDHLTYLVRLLLSR | – | – | – | – | NGS count (human MyD88 (human) [2]): 3060 count; Population (human MyD88 (human) [2]): 1.18%
50 | EWIREQLRPALKERLP | 16800 count | 4.9% | – | – | NGS count (human MAL (human) [4]): 2350 count; Population (human MAL (human) [4]): 0.88%
51 | RNNFIGHLYQALYRIG | – | – | 3120 count | 0.96% | –
52 | YLRADDSWFWEKLLYA | – | – | – | – | NGS count (human MyD88 (human) [2]): 4070 count; Population (human MyD88 (human) [2]): 1.57%
53 | SPQEQDGFWVRLIEAL | – | – | – | – | NGS count (human MyD88 (human) [2]): 1840 count; Population (human MyD88 (human) [2]): 0.71%
54 | DWVWEHFFPMEEKDQT | – | – | – | – | NGS count (human MyD88 (human) [2]): 1540 count; Population (human MyD88 (human) [2]): 0.59%
55 | LEANDSLFWDRLLYSL | – | – | – | – | NGS count (human MyD88 (human) [2]): 1460 count; Population (human MyD88 (human) [2]): 0.56%
